According to the DeepSol protein solubility set:

Assay: soluble on expression in E. coli; label from the status in PepcDB or PDB records

| Sequence | soluble on expression in E. coli |
| --- | --- |
| MSHRPIAIFDFDGTLTRCDSLLPFLRQAQPVILFWLRLPFYLAMWMCYKLRLAPADRTKAAILSTVLKGKREVECRAMGQRFVPAIESILRPEALRCLEWHRSEGHRLVLLTASLLPCVEPWAEKTGFHTVIATLPEIKSGILTGRFEGNNCKGKEKIHRLDRALPHWRDSISYGYGDSPSDRPLLSLCTHSYYRRFPAL | not soluble |
| GHMLWARLVGLARLEARALSKKERRSLLERLKPYYTRIPFSEKADLRLVKARTDSGEYEIITVDGVPCLFEWSDGRIYPTLQCLKAFGVDWLKGVVLVDKGAAIALAKGAHLMIPGVVGVEGSFTRGDVVAALYHETRTPVMVGVAEVDSSALEKLYREKARGRAVRRVHRLGDALWELAQEVGKRLSGS | soluble |
| MSLTQIFAHRGSKVDCPENTLAAFKKAIQVGCDGIEIDVHRTKDNQLVVIHDEAVDRTSNGSGLVRQLTLKQIRMLDAGSWFHPAYFCEKIPTLEEVLNFLEESGFQGTLNLEIKTNRYPYPKIEKQIAQTMQAKKRSFSHIYSSFNLFSLYVMRKHDPKAELAYLMKFHPFHFWLAQQLKFIKTVHSHSSFYENQVTKRKNKKPFRLWTVNNDDDMKKFFLSGIEGIITDKPEEAVKLRKSLQTKEGHHHHHH | not soluble |
| MLNTTFANAKFANPFMNASGVHCMTIEDLEELKASQAGAYITKSSTLEKREGNPLPRYVDLELGSINSMGLPNLGFDYYLDYVLKNQKENAQEGPIFFSIAGMSAAENIAMLKKIQESDFSGITELNLSCPNVPGKPQLAYDFEATEKLLKEVFTFFTKPLGVKLPPYFDLVHFDIMAEILNQFPLTYVNSVNSIGNGLFIDPEAESVVIKPKDGFGGIGGAYIKPTALANVRAFYTRLKPEIQIIGTGGIETGQDAFEHLLCGATMLQIGTALHKEGPAIFDRIIKELEEIMNQKGYQSIADFHGKLKSL | soluble |
| MGEETIAAIATGAGEGGIGIVRISGADALQVAERIFRPRRGRPLGCRRSHTVTYGWVVTPGGDRIDEALALVMRGPHSYTGEDVVELQCHGGQLAVRRVLEQALQAGARLAEPGEFTRRAFLNGRLDLSQAEAVVDLIRAKTDRAMAAAVAHLGGSLRQAVGRIRERLMEMMAHLEADIDFPELELEVQTREEVAAGCGWCLGEVERLLGGARTGRILREGLRAVLAGRPNVGKSSLLNRLVRENRAIVTPIPGTTRDVIAEWVELGGVPVQLFDTAGLRPTDDPVERIGVARTHEALAQAHLVLVVVDAAAGLGPEDREWISQLPQGAARVGVANKIDLNPAFELSALREALGGAPVVGVSAETGEGLDALEAEVARVAGAFDASEELLVNTRQAEAIRRARNHLRDAQATLESGLGDELVAIDLRAAWMALGEVTGETAGEELLDQIFSRFCIGK | soluble |
| MENWYPCIICGIARYGHDVIATPRLTSDARVNQWLNLIGKPALNRILATNKNPTLNTFICIEHFEPEELIEPKKRRMKPIKTTRREMAIYENYFRDHGYFETQKSDVNRKKSMKLTSISCSQCSESVERDGKFAKIDMVDHAKLHMELGDCRCEKHKKIERIDRIDGENSDFQCSECAFILNAELEAVKEKAEFCFPMFQFEKSKFSNSTLEPRMKPEYIESRPFWNSEEYDPVFLDSDVKFDLIEDFEPPEPEPEPEQVDTELVKLEPIDGDYEHMEGCFSGFEQEESEQPSTSSAPRKLVQQRDRLLENLYQSNRHPSMEDINSLLDFSGDQRSIEAIFGFFERRRNDDNEMCTGDDACSSLRRYLEMELHPHGPLLEPPEIRCRMIKMFEKHWAKYRYVFRDLHSYMFSDALGLPPKYIRQRFEHFKERKNQQQKKQQEEADRAFRERHKPPKPHKPKPKSQYSKFEDETMEKAYMRTVKMNPSSYESRDLLESISISLRMSLIKVHEWFNNRKFVDSIIDQTWRTFSVNDEKRLHSTFLQNPQPTDEQYCYLAKELRAPVKEVMNWFKLKQMNEEREEEALKFEYKLDALTQESIDLFTTIVDGTTVVSVAKRRLLALELDVPYETLGRWIFYYRNREEKSRKSPKLEDDDDPPPRLAKMPRLEMNEPDNEEDIKLEPLDS | not soluble |
| PSHSGAAIFEKVSGIIAINEDVSPAELTWRSTDGDKVHTVVLSTIDKLQATPASSEKMMLRLIGKVDESKKRKDNEGNEVVPKPQRHMFSFNNRTVMDNIKMTLQQIISRYKDAD | soluble |
| MEAAANRQLIVSFTPYEWKYVRQLFRSRRIEDVKECVIILATWISRTGENTPVAISCSHVLLQAIYAELLSTGMCESERYMAIDDLRSKHGYAIVRFVNYVNEMGQTGATLKNMVHAVKSFGIPKKIVDIRHAITHQNCPDIAELRYATNFCLDWLWKNFWLSDARVAMNSAAATNSSKNPTSSSEFGGQRGREQQYVSSLRAFNTWRVKNRQLTTELEWSEVAELLALKHHILLDSTGFLTCFMRDGHLIQTPGQWKNWKLPVTCSNDNWQIPEEIQAFWEPLFHVMFSLKLGAEIVVAFLWRLREPMIKDMTRHQITAYVRMIVQQFADADVFSDEEWYKVLDHLLPVAKNFSTEFIELVMARCTTLAHKRKKQIRQILNISTKSHVESPSTSSSDTVHTVSDLQKLLKKSSKSVVKSEPVTSNADGNRTGIELCDVAAWAEVPFGMAPGQRIETFTVVLDHHGSDKSRKRRAFDAAITLDED | not soluble |
| MGSDKIHHHHHHMDIKQLKFLIALDQTRHFGQAAALCHITQPTLSMRLRNLEDELDLVLVKRGQRFEGFTEAGERILAWARTLLAAHDGLQAEAASCRGQVVGSLRLGTVPLASFNPMHLLLPLREKYPELHFQLSSLSSEQVIDGLSRNQLDLGICYLDQVNTSFFEVIELGTTTMGLLHDTRHFQFTSDRLRWDELGDIPLGLLSKGMHYRQSLDLSFRSRGLEPNAVLESDSSFQLIQAINTGICCAIMPLDCGLEDLSEHLRIVPVADAAIHSPVGLLLRRSEPRSAIAEQCFAEARGLFQAS | not soluble |
| GMARLKNLPQERPLPLASLIEARENQVLSMALAQSDRVQISLFSFADGESVSEEEYFGDTLYLILQGEAVITFDDQKIDLVPEDVLMVPAHKIHAIAGKGRFKMLQITLIDEER | soluble |
| MSEDHHDEEQFDSAESGAAATFPKQCSALRKNEHVMIRGRPCKIVEMSTSKTGKHGHAKVHMVAIDIFTTKKLEDICPSTHNMDVPVVKRREYILMSIEDGFCSLMDPESCELKDDLKMPEGDLGNTIREALEKDEGSVLVQVVAACGEEAILGYKISTKE | not soluble |
| MKLAAMIKKMCPSDSELSIPAKNCYRMVILGSSKVGKTAIVSRFLTGRFEDAYTPTIEDFHRKFYSIRGEVYQLDILDTSGNHPFPAMRRLSILTGDVFILVFSLDNRDSFEEVQRLRQQILDTKSCLKNKTKENVDVPLVICGNKGDRDFYREVDQREIEQLVGDDPQRCAYFEISAKKNSSLDQMFRALFAMAKLPSEMSPDLHRKVSVQYCDVLHKKALRNKKLLRAGSGGGGGDPGDAFGIVAPFARRPSVHSDLMYIREKASAGSQAKDKERCVIS | soluble |
| MSLNLDFELNLTQQQKLVMTQQMQMSIKLLQMSNMELNEYIRSEIEENPLLDGKEVIKNDEYQSEMSKVDYKEFIKYLDFDNYTHENYSYRSEEEEVSPFNFIGSKKSFTEYLLDQLREISIDSETRHICEYIIENLDRDGYLRDSLEDIGMAVHKELKSVQNALNVVQSLEPIGVGARNLAECLKLQIYVRNVNDTKLIEIIDKHLGNIAENKYGVIAKELNITPKEAQEYGDYIKKLEPKPSRGFFTGDEVKYVVPDAFIRKIDDDFYVIMNDSSIPKLSINNTYKNILNTENDKKDVDYVKEKLNSAMFLLKSIEQRKTTLYEVLNEILRYQKAYFVGKTNYLRPMTLKDISEKLGMHESTISRAIREKYVYIDTKGLVKIRDMFTTGIASAYSVSEDKKDMSTQKIKNEIRDLIEKENKKSPLSDQKLSEILKEKGMNISRRTVAKYREEIGIKSSAKRKRYEGHHHHHH | soluble |
| YDFIDNPGFDESHSLTEMREAFLSFFEDRDHERIDPYPVAANRWRDDVLLTQASIYDFQPLVTSGTTPPPANPLCISQPCIRMQDIDNVGKTGRHTMAFEMMAHHAFNAREDIEDPEQYAYEGEVYWKNETVQYCDELFEEMGANLDEIVYIEDPWVGGGNAGPAIEVIYRGAELATLVFMSMEQDSDGEYEMKDGNRYSPMDTYIVDTGYGLERWTWMSQGTPTVYEAVYPDMIAFLKDNAGIELTDEEERIVHEAAKLAGRMDI | not soluble |
| KLTKSDLDILNSMKNVVDGIARMYGEHTEVVLHSLDAEAPEIIKIANGHVTERSEGAPITNLARMKLREGKDVSDSYLTKTSNGKTLHSITTIVRNPKNKPIGLLCINVDMDAPMQAFLKAMLPQQHTECCVGGAR | not soluble |
| MSQANRTNGLVDYKELETNILSSIQEGKPLTGRDGALTPFIKRLLEASLEGEIESHMSAKSEENNRRNGRNAKTLRTSAGSFELLTPRDREGNFEPQIVKKRQTSLHPELEAKVLSTYASGMGYRDIASHVEEIYDHKISAAEISSITDKLLPIINEWRSRPLQSVYPIVFMDGMFFKVKEDGHCVSKCMYNILGINQNGRKEVLGFYLAESEGATFWLGVLNDLKERGVEDILIACIDGLKSFPTAINSVFPSAEVQLCIVHQIRNSLKYVSSKDVKVFMNDLKKIYRASSKEIAENYLLELEEKWGEKYPLVIKSWQNNWENLSSYFKYSGPVRKLIYTTNPIEGLHRQIRKFTKTKGSFTSTNALYKQVYCAIKKVEQKWIMALPNWALTMSQLDIFFPGRLKIELN | soluble |
| MKEDKKVLHVANMTNGLIVYPDYDYIVYFPSSYTAAGTPLYFPEFAVPIDLIKALLEEKKVIMYDATVHENKELTDAFLKGVPTFLMALNRAIHGTKGLFEKLEKGYKVCPWQTPDIVQHAVYRLPKHYYKFLKKCVKLFAPEKRGKLWISIPENVELVVEKIDRRLNDNYEEIAKMIKEKKSIHTYRV | not soluble |
| MGHHHHHHSHPPERQINLSNIRAGNLARRAAATQPDAKDTPDEPWAFPAREFLRKKLIGKEVCFTIENKTPQGREYGMIYLGKDTNGENIAESLVAEGLATRREGMRANNPE | not soluble |
| GPGSMSAAVTWLQNSLGIDVTGEWARHVHLNVGGTLYTTRRYTLRELKDHRIFGPILDGHAHRCEDGSFLIDRDGSLFRYIIAYLRDGRLSVPENFAEWDMLLQEVRYYELPAMEKSVMDHFEFQQSVFRRQLPHGVYVWWPPASSQIEEGATVKAAPCDCPASVPPPPLSLFALPITDSATGRCEARGATEDQTRALEKVHVEAAADAATRSSAGAAPSSCSSASMSVRIVPPLPGLTVEMSSGRRVMFRETQVLQDLDQLVTVLLTAYGFSIQHWDTERGRVLLTLPGLM | not soluble |
| MHNQAPIQRRKSTRIYVGNVPIGDGAPIAVQSMTNTRTTDVEATVNQIKALERVGADIVRVSVPTMDAAEAFKLIKQQVNVPLVADIHFDYRIALKVAEYGVDCLRINPGNIGNEERIRMVVDCARDKNIPIRIGVNAGSLEKDLQEKYGEPTPQALLESAMRHVDHLDRLNFDQFKVSVKASDVFLAVESYRLLAKQIDQPLHLGITEAGGARSGAVKSAIGLGLLLSEGIGDTLRVSLAADPVEEIKVGFDILKSLRIRSRGINFIACPTCSRQEFDVIGTVNALEQRLEDIITPMDVSIIGCVVNGPGEALVSTLGVTGGNKKSGLYEDGVRKDRLDNNDMIDQLEARIRAKASQLDEARRIDVQQVEK | soluble |
